Legend:
[1] = target: KEAP1 (wild-type full-length), His-tagged (human) (UniProt Q14145); experiment: AlphaScreen; mean over 9.6, 19.2 and 38.4 nM NRF2; 150 nM His-KEAP1
[2] = target: KEAP1 (wild-type full-length), His-tagged (human) (UniProt Q14145); experiment: AlphaScreen; 9.6 nM FLAG-NRF2, 150 nM His-KEAP1 (same value as in Table 22)
[3] = target: KEAP1 (wild-type full-length), His-tagged (human) (UniProt Q14145); experiment: AlphaScreen, all variants on one plate; optimal condition (19.2 nM NRF2), KEAP1 150 nM; the reference itself
[4] = target: KEAP1 (wild-type full-length), His-tagged (human) (UniProt Q14145); experiment: AlphaScreen; 19.2 nM FLAG-NRF2, 150 nM His-KEAP1; Repeat 1 (same value as in Table 23)
[5] = target: KEAP1 (wild-type full-length), His-tagged (human) (UniProt Q14145); experiment: AlphaScreen; over 9.6, 19.2 and 38.4 nM NRF2; 150 nM His-KEAP1
[6] = target: KEAP1 (wild-type full-length), His-tagged (human) (UniProt Q14145); experiment: AlphaScreen; 9.6 nM FLAG-NRF2, 150 nM His-KEAP1; Repeat 1 (same value as in Table 23)
[7] = target: KEAP1 (wild-type full-length), His-tagged (human) (UniProt Q14145); experiment: AlphaScreen; average of three conditions; against wild-type NRF2 isoform 2
[8] = target: KEAP1 (wild-type full-length), His-tagged (human) (UniProt Q14145); experiment: AlphaScreen; 9.6 nM FLAG-NRF2, 150 nM His-KEAP1; Repeat 2 (same value as in Table 23)
[9] = target: KEAP1 (wild-type full-length), His-tagged (human) (UniProt Q14145); experiment: AlphaScreen, all variants on one plate; lower condition (9.6 nM NRF2), KEAP1 150 nM; relative to NRF2 (WT) isoform 2
[10] = target: KEAP1 (wild-type full-length), His-tagged (human) (UniProt Q14145); experiment: AlphaScreen; 19.2 nM FLAG-NRF2, 150 nM His-KEAP1 (same value as in Table 23)
[11] = target: KEAP1 (wild-type full-length), His-tagged (human) (UniProt Q14145); experiment: AlphaScreen; 19.2 nM FLAG-NRF2, 150 nM His-KEAP1; against wild-type NRF2 isoform 2 = 100%
[12] = target: KEAP1 (wild-type full-length), His-tagged (human) (UniProt Q14145); experiment: AlphaScreen; 38.4 nM FLAG-NRF2, 150 nM His-KEAP1; Repeat 1 (same value as in Table 23)

Chain of KEAP1 (wild-type full-length), His-tagged (human) (Q14145 2-624 limits assumed, form in doubt): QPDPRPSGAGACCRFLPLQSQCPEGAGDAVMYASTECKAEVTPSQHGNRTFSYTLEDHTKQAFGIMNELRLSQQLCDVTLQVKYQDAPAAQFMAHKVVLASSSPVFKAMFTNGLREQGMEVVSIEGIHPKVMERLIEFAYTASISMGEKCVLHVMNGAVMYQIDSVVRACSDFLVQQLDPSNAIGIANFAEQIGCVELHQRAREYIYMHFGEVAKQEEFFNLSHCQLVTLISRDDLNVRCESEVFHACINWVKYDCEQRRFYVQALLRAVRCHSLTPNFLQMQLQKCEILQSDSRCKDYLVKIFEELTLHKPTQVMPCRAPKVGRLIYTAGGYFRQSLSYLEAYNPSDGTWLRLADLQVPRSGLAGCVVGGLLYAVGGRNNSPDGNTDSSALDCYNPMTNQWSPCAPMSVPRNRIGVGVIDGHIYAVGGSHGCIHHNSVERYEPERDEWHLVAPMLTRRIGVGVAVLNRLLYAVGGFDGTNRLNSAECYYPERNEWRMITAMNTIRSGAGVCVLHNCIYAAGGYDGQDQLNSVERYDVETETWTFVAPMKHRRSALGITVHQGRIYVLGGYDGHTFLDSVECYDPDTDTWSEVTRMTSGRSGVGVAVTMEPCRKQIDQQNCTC

Substance	Average Binding [1] [%]	S/N [2]	% Disruption in Binding [3] [%]	A-counts [4] [A-counts]	Standard Deviation (of binding percentage) [5] [%]	A-counts [6] [A-counts]	Reported Value (reduction in binding) [7] [%]	A-counts [8] [A-counts]	% Disruption in Binding [9] [%]	S/N [10]	Binding Percentage (%) [11] [%]	A-counts [12] [A-counts]
NRF2 isoform 2 (wild-type full-length), FLAG-tagged	100	3.7	0	–	–	–	–	–	–	–	–	–
NRF2 isoform 2 (E63G/E66G full-length), FLAG-tagged	–	–	–	1700	10.2	1670	69.1	1520	63.4	1.8	19.2	2120

From patent US20250352667A1
